Assay [1] addresses T1, glutathione-S-transferase (GST)-fused shFcRn (human, UniProt P55899 24-290; P61769 21-119, limits assumed).
T1 construct: Made as in Berntzen et al. 2005 / FEBS J. 2008; also called shFcRn-GST; GST-tagged shFcRn; not shown: GST tag
The experiment in a line: ELISA: albumin coated at the concentration on the axis, shFcRn-GST in solution, pH 6.0. The procedure:
One hundred μl of the substrate tetramethylbenzidine (TMB) (Calbiochem) was added to each well and incubated for 45 min before 100 μl of 0.25 M HCl was added. The absorbance was measured at 450 nm using a Sunrise TECAN spectrophotometer (TECAN, Maennedorf, Switzerland). The same ELISA was repeated with PBS/T pH 7.4.
Commercially available animal albumin (either Sigma-Aldrich or Calbiochem) were further purified as described in Andersen et al (2010). J. Biol. Chem. 285, (7), 4826-4836.
Background: In an ELISA, binding on a coated surface is turned into a signal by an enzyme label.

For assay [2], the target named is T2, mouse serum albumin (mouse, UniProt P07724 25-608).
T2 construct: mature; also called MSA; MouseSA
The experiment in a line: SPR, FcRn immobilized, 1:1 Langmuir model. The procedure:
SPR analyses were performed on a BIAcore 3000 instrument (GE Healthcare) using CM5 chips and immobilization of smFcRn-GST and shFcRn-GST variants or smFcRn was performed using the amine coupling kit (GE Healthcare). Protein samples (10 μg/ml) were injected in 10 mM sodium acetate at pH 4.5 (GE Healthcare), all as described by the manufacturer. Unreacted moieties on the surface were blocked with 1 M ethanolamine. For all experiments, phosphate buffer (67 mM phosphate buffer, 0.15 M NaCl, 0.005% TWEEN® 20) at pH 6.0 or pH 7.4, or HBS-P buffer (0.01 M HEPES, 0.15 M NaCl, 0.005% surfactant P20) at pH 7.4 were used as running buffer or dilution buffer. Kinetic measurements were performed using a low density immobilized surface (100-200 resonance units (RU)). […] In all cases, to correct for nonspecific binding and bulk buffer effects, responses obtained from the control surfaces and blank injections were subtracted from each interaction curve. Kinetic rate values were calculated using predefined models (Langmuir 1:1 ligand model, heterogeneous ligand model and steady state affinity model) provided by the BIAevaluation 4.1 software.
The KD's were generated using the B|Aevaluation 4.1 software) A Langmuir 1:1 ligand model was used throughout. The kinetic values represent the average or triplicates. ND means: Not determined. NA means: Not acquired
A general note: In SPR one partner is held on a chip, and binding of the other changes the refractive index at the surface.

T1 sequence (P55899 24-290 limits assumed, chain 1 of 2): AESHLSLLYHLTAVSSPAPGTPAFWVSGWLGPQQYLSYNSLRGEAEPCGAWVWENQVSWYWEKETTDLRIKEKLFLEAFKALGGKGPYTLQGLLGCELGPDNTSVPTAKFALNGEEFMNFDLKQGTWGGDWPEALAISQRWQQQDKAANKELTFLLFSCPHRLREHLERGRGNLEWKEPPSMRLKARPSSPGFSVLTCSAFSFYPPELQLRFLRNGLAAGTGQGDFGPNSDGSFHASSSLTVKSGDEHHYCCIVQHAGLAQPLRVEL
T1 sequence (P61769 21-119 limits assumed, chain 2 of 2): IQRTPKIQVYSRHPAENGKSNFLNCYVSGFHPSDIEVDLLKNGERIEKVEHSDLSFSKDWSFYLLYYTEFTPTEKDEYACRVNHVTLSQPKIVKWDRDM

B1: donkey serum albumin (ligand, UniProt Q5XLE4 25-607, looked up)
chain: DTHKSEIAHRFNDLGEKHFKGLVLVAFSQYLQQCPFEDHVKLVNEVTEFAKKCAADESAENCDKSLHTLFGDKLCTVATLRATYGELADCCEKQEPERNECFLTHKDDHPNLPKLKPEPDAQCAAFQEDPDKFLGKYLYEVARRHPYFYGPELLFHAEEYKADFTECCPADDKAGCLIPKLDALKERILLSSAKERLKCSSFQKFGERAFKAWSVARLSQKFPKADFAEVSKIVTDLTKVHKECCHGDLLECADDRADLTKYICEHQDSISGKLKACCDKPLLQKSHCIAEVKEDDLPSDLPALAADFAEDKEICKHYKDAKDVFLGTFLYEYSRRHPDYSVSLLLRIAKTYEATLEKCCAEADPPACYATVFDQFTPLVEEPKSLVKKNCDLFEEVGEYDFQNALIVRYTKKAPQVSTPTLVEIGRTLGKVGSRCCKLPESERLPCSENHLALALNRLCVLHEKTPVSEKITKCCTDSLAERRPCFSALELDEGYIPKEFKAETFTFHADICTLPEDEKQIKKQSALAELVKHKPKATKEQLKTVLGNFSAFVAKCCGAEDKEACFAEEGPKLVASSQLALA
notes: mature
Regarding B1, in assay [1], the “EC50 (read off the curve)” value is around 1 µg/mL.

B2: soluble mouse FcRn (smFcRn) (receptor)
chain 1: SETRPPLMYHLTAVSNPSTGLPSFWATGWLGPQQYLTYNSLRQEADPCGAWMWENQVSWYWEKETTDLKSKEQLFLEALKTLEKILNGTYTLQGLLGCELASDNSSVPTAVFALNGEEFMKFNPRIGNWTGEWPETEIVANLWMKQPDAARKESEFLLNSCPERLLGHLERGRRNLEWKEPPSMRLKARPGNSGSSVLTCAAFSFYPPELKFRFLRNGLASGSGNCSTGPNGDGSFHAWSLLEVKRGDEHHYQCQVEHEGLAQPLTVDLDSSARSS
chain 2: IQKTPQIQVYSRHPPENGKPNILNCYVTQFHPPHIEIQMLKNGKKIPKVEMSDMSFSKDWSFYILAHTEFTPTETDTYACRVKHASMAEPKTVYWDRDM
Regarding B2, in assay [2], the affinity, expressed as Kd, was 9.3 µM; the koff is 0.0394 s⁻¹; the kon was determined as 4200 M⁻¹ s⁻¹.

One may read the EC50 (read off the curve) as the concentration that produces a half-maximal response. A word on the Kd: it is the constant that tells how readily two partners part at equilibrium. High values mean weaker binding, low ones tighter binding. What is called koff is the first-order rate constant of dissociation. Lower therefore signals slow dissociation. Broadly, the kon is the second-order rate constant of association. Higher therefore signals faster complex formation.

These data come from patent US20120220530A1 (NOVOZYMES BIOPHARMA DK A S, published 2012).
